Results as given in article PMC12445000, “Domain-Specific DNA Binding Activities of BRCA1 Reveal Substrate Preferences for Homologous Recombination and Telomere Regulation”.

Experiments:
BRCA1 DBD2 = BRCA1 DBD2 (human, UniProt P38398 894-1057); assay: BLI; 150 mM KCl; BLI (BLItz, SAX sensors, immobilized biotin-DNA) in Buffer H: 20 mM HEPES pH 7.5, 150 mM KCl, 5 mM TCEP, 5% glycerol, 25 C; steady-state 1:1 fit; errors 95% CI, n=3; conditions: protein: recombinant, tags: Ni-NTA purified (details not given)
BRCA1 DBD1 = BRCA1 DBD1 (human, UniProt P38398 330-554); assay: as above; conditions: protein: recombinant, tags: Ni-NTA purified (details not given)
[1] = label: 5' biotin on strand 1, 5' Cy3 on strand 2, blunt

Chain of BRCA1 DBD1 (P38398 330-554): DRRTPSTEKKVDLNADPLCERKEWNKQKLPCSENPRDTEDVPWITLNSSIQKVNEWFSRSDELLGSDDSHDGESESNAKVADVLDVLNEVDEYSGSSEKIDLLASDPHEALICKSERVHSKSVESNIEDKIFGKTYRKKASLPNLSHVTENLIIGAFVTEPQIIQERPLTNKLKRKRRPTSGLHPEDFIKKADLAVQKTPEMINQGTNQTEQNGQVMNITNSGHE
Chain of BRCA1 DBD2 (P38398 894-1057): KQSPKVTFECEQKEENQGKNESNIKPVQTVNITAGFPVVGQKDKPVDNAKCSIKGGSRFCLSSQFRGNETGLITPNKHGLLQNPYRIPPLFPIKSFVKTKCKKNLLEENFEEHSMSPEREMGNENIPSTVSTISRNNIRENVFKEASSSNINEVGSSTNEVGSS

Binder: TTAGGGTTAGGGTTAGGGTTAGGG (structured_DNA) [BioG4Telo (G4)]
- Kd (BRCA1 DBD2; label: 5' biotin, G4): 34.7 ± 16.1 nM
- Kd (BRCA1 DBD1; label: 5' biotin, G4): 67.2 ± 12.5 nM

B1: Bioss60R (ssDNA) (ssDNA)
DNA: CCATGGCTCCTGAGCTAGCTGCAGTAGCCTAAAGGATGAAACTAGGATCTTATGCTCCAT
- Kd (BRCA1 DBD2; label: 5' biotin): 40.8 ± 3.7 nM
- Kd (BRCA1 DBD1; label: 5' biotin): 68.4 ± 33.8 nM

B2: Biods60R (dsDNA) (dsDNA)
DNA 1: B1 DNA
DNA 2: ATGGAGCATAAGATCCTAGTTTCATCCTTTAGGCTACTGCAGCTAGCTCAGGAGCCATGG
- Kd (BRCA1 DBD2; [1]): 44.6 ± 6 nM
- Kd (BRCA1 DBD1; [1]): 35.5 ± 9 nM
